# Results taken from the supplement of paper PMC7125110.
# ± gives the standard error. This sample holds only a part of the variants without activity.
# B1: glmS ribozyme (parent)
# chain: AUAAAAGCGCCAGAACUACAGAAAUGUAGUUGACGAGGAGGAGGUUUAUCGAAUUUUCGGCGGAUGCCUCCAAA
# Columns and labels:
# Details in all cases: with glucosamine-6-phosphate
# glucosamine-6-phosphate [1] = variants of: B1; experiment: self-cleavage kobs at 40 uM GlcN6P; higher = faster cleavage; RNA array
# How it was run: (§1)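 E. coli RNA polymerase transcribed barcoded ribozyme variants in situ on sequenced MiSeq chips, which were tracked via a hybridised Cy3 probe at 37 °C. Tiles were imaged over ~14 h after glucosamine-6-phosphate (40 μM to 10 mM) in HEPES/KCl/Mg(OAc)2 buffer was flowed in. Normalised per-tile medians were fit to one- or two-exponential decays for kobs, and kcat and KM came from weighted Michaelis–Menten fits.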
# glucosamine-6-phosphate [2] = variants of: B1; experiment: self-cleavage kobs at 640 uM GlcN6P; higher = faster cleavage; RNA array
# How it was run: as §1
# glucosamine-6-phosphate [3] = variants of: B1; experiment: self-cleavage kobs at 2500 uM GlcN6P; higher = faster cleavage; RNA array
# How it was run: as §1
# glucosamine-6-phosphate [4] = variants of: B1; experiment: self-cleavage kobs at 10000 uM GlcN6P; higher = faster cleavage; RNA array
# How it was run: as §1
# glucosamine-6-phosphate [5] = variants of: B1; experiment: self-cleavage kobs at 160 uM GlcN6P; higher = faster cleavage; RNA array
# How it was run: as §1
Variant,self-cleavage kobs at 40 uM GlcN6P (glucosamine-6-phosphate [1]) [s⁻¹],self-cleavage kobs at 640 uM GlcN6P (glucosamine-6-phosphate [2]) [s⁻¹],self-cleavage kobs at 2500 uM GlcN6P (glucosamine-6-phosphate [3]) [s⁻¹],self-cleavage kobs at 10000 uM GlcN6P (glucosamine-6-phosphate [4]) [s⁻¹],self-cleavage kobs at 160 uM GlcN6P (glucosamine-6-phosphate [5]) [s⁻¹]
G32A A33U C68G C71G,0.000162 ± 3.9e-05,0.000432 ± 0.0001,9.26e-05 ± 3.4e-05,0.000152 ± 3.2e-05,–
G35U G51A,–,< 1e-05,–,< 1e-05,< 1e-05
A6G G44A C71A,–,< 1e-05,< 1e-05,< 1e-05,< 1e-05
G40U U45A U56G,–,–,0.000611 ± 0.00014,–,6.56e-05 ± 1.6e-05
A6G A14C C34A C68A,< 1e-05,–,–,–,–
G29C G35U C58U,< 1e-05,–,–,–,–
C10U G13C,–,–,–,< 1e-05,< 1e-05
C34U G35U A39C G63A C67U,–,–,–,–,< 1e-05
A6C C11U C16U U30G A39U G41U U54G U69G,–,–,–,–,< 1e-05
C8U G62U U69G,0.00021 ± 7.2e-05,–,–,0.000358 ± 0.00015,–
A33U G51C G60U G63U,< 1e-05,–,–,–,–
A48C C58G C71A,–,< 1e-05,–,–,< 1e-05
C11U A33C A52G C67A,< 1e-05,–,–,–,–
A15G C16G U55A,–,0.000405 ± 0.00011,0.00143 ± 0.0004,–,0.000205 ± 6e-05
C10A U69G,–,–,0.000329 ± 8.6e-05,3.29e-05 ± 1.6e-05,3.29e-05 ± 1.6e-05
A33C A64C,< 1e-05,< 1e-05,< 1e-05,< 1e-05,< 1e-05
A6G G38A G43U A48U A52C U69G,–,–,< 1e-05,–,< 1e-05
A6C G60A,< 1e-05,< 1e-05,< 1e-05,–,–
A48C U55A G66C,–,–,–,–,< 1e-05
U31C U56G G60C,–,< 1e-05,–,< 1e-05,< 1e-05
G9A U49A,–,< 1e-05,< 1e-05,–,< 1e-05
G35U C71U,–,< 1e-05,< 1e-05,< 1e-05,< 1e-05
C11U U55G C71A,–,8.41e-05 ± 1.7e-05,0.000143 ± 5.3e-05,–,3.73e-05 ± 1.5e-05
C8G G51U,< 1e-05,< 1e-05,–,< 1e-05,–
C11A A15G U69G,–,0.000293 ± 0.0001,0.000159 ± 4.9e-05,–,0.000139 ± 6.4e-05
